Data published in patent WO2021212049A2.

Target: recombinant SARS-CoV-2 S protein ectodomain (residues 14-1211), 2P, furin site mutated, foldon, 8XHis (SARS-CoV-2), P0DTC2
Test: ELISA on coated antigen, anti-human IgG-HRP
Settings: remark: other sources report otherwise

B1: mAb 2H04 (antibody)
chain 1: EVQLQQSGAELVKPGASVKMSCKASGYTFTSYWITWVKQRPGQGLEWIGDIYPGSGSTKYNEKFRSEATLTVDTSSTTAYMQLSSLTSEDSAVYYCARWDFYGSRTFDYWGQGTTLTVSS
chain 2: DIVLTQSPAILSVSPGERVSFSCRASQNIGTIIHWYQQRTNGSPRLLIKYASESVSGIPSRFSGSGSGTDFTLSINSVESEDIADYYCQQSSSWPLTFGAGTKLELK
**Q.** Which minimum positive concentration does the source give for B1 here?
**A.** The minimum positive concentration was less than 5 µg/mL.
